Source: US20160082114A1 (published 2016)
Like-named read-outs stand apart in the source and are kept apart here. One block for each binder: values may come before it.

Columns and labels:
[1] = target: T1, folate receptor 1 (FOLR1) (human, UniProt P15328 25-234); assay: flow cytometry, T47D cells
[2] = target: T1, folate receptor 1 (FOLR1); assay: flow cytometry, T47D cells; remark: listed apart in the source

T1 sequence (P15328 25-234): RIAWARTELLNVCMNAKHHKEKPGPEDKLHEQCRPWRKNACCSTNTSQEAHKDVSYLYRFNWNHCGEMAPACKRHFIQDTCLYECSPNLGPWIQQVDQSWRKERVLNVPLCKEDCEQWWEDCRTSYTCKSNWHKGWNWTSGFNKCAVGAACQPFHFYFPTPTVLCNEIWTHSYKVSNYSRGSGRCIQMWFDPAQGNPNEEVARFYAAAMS

EC50 [1]: 0.379 nM
B1: huMOV19-14 conjugate (antibody, V domains shown)
VH: QVQLVQSGAEVVKPGASVKISCKASGYTFTGYFMNWVKQSPGQSLEWIGRIHPYDGDTFYNQKFQGKATLTVDKSSNTAHMELLSLTSEDFAVYYCTRYDGSRAMDYWGQGTTVTVSS
VL: DIVLTQSPLSLAVSLGQPAIISCKASQSVSFAGTSLMHWYHQKPGQQPRLLIYRASNLEAGVPDRFSGSGSKTDFTLTISPVEAEDAATYYCQQSREYPYTFGGGTKLEIKR

EC50 [2]: 0.371 nM
B2: huMOV19-90 conjugate (antibody, V domains shown)
VH: B1 VH
VL: B1 VL
